Data from PMC2849977 (2009).

B1: KIAA1718 1-488 (protein)
chain: MAGAAAAVAAGAAAGAAAAAVSVAAPGRASAPPPPPPVYCVCRQPYDVNRFMIECDICKDWFHGSCVGVEEHHAVDIDLYHCPNCAVLHGSSLMKKRRNWHRHDYTEIDDGSKPVQAGTRTFIKELRSRVFPSADEIIIKMHGSQLTQRYLEKHGFDVPIMVPKLDDLGLRLPSPTFSVMDVERYVGGDKVIDVIDVARQADSKMTLHNYVKYFMNPNRPKVLNVISLEFSDTKMSELVEVPDIAKKLSWVENYWPDDSVFPKPFVQKYCLMGVQDSYTDFHIDFGGTSVWYHVLWGEKIFYLIKPTDENLARYESWSSSVTQSEVFFGDKVDKCYKCVVKQGHTLFVPTGWIHAVLTSQDCMAFGGNFLHNLNIGMQLRCYEMEKRLKTPDLFKFPFFEAICWFVAKNLLETLKELREDGFQPQTYLVQGVKALHTALKLWMKKELVSEHAFEIPDNVRPGHLIKELSKVIRAIEEENGKPVKSQGI
B2: PHF8 1-447 (protein)
chain: MNRSRAIVQRGRVLPPPAPLDTTNLAGRRTLQGRAKMASVPVYCLCRLPYDVTRFMIECDMCQDWFHGSCVGVEEEKAADIDLYHCPNCEVLHGPSIMKKRRGSSKGHDTHKGKPVKTGSPTFVRELRSRTFDSSDEVILKPTGNQLTVEFLEENSFSVPILVLKKDGLGMTLPSPSFTVRDVEHYVGSDKEIDVIDVTRQADCKMKLGDFVKYYYSGKREKVLNVISLEFSDTRLSNLVETPKIVRKLSWVENLWPEECVFERPNVQKYCLMSVRDSYTDFHIDFGGTSVWYHVLKGEKIFYLIRPTNANLTLFECWSSSSNQNEMFFGDQVDKCYKCSVKQGQTLFIPTGWIHAVLTPVDCLAFGGNFLHSLNIEMQLKAYEIEKRLSTADLFRFPNFETICWYVGKHILDIFRGLRENRRHPASYLVHGGKALNLAFRAWTRKE

Biological target: histone H3 peptide H3K4me3-K9me2 1-24 (Homo sapiens, UniProt P68431, H3K4me3+H3K9me2)
Assay: ITC

Binder	Kd
B1	~300 nM
B2	~1000 nM
